Assay [1] deals with T1, Recombinant human G-CSFR (Glu25-Pro621, 381-GR/CF, R&D Systems) (human, UniProt Q99062 25-621).
T1 construct: range 25-621; Bought protein, amine-coupled to a CM5 chip for SPR; also called rhG-CSFR; granulocyte-colony stimulating factor receptor
T1 sequence (looked up): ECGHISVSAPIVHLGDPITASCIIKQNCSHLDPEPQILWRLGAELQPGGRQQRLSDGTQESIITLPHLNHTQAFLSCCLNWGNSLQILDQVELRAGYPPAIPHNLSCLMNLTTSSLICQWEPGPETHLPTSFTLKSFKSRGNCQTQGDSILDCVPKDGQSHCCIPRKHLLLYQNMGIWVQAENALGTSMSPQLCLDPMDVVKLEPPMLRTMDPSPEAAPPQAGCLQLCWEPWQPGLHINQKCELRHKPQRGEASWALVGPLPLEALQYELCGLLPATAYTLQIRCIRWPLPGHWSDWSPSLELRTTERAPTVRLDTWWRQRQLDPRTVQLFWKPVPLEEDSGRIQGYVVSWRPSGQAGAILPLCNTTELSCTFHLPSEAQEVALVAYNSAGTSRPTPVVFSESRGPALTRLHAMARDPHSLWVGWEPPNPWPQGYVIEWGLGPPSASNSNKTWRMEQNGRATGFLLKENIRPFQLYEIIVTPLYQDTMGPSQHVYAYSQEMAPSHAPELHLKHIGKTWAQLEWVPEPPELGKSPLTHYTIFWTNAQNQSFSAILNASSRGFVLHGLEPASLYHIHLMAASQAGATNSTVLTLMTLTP
The assay is described as follows: SPR, Biacore X100, multi-cycle kinetics, rhG-CSFR amine-coupled to CM5 chip, design as analyte, 1:1 model; series of Fig. 6 (from 20 nM). Background: In SPR one partner is held on a chip, and binding of the other changes the refractive index at the surface.

Assay [2] addresses T1, Recombinant human G-CSFR (Glu25-Pro621, …). The assay is described as follows: SPR, rhG-CSFR on CM5 chip (Fig. 3E).
Assay [3] has the same target. The assay is described as follows: not stated in the sentence (SPR values of Table 2 agree).
Assay [4] has the same target. The assay is described as follows: SPR, Biacore X100, multi-cycle kinetics, rhG-CSFR amine-coupled to CM5 chip, design as analyte, 1:1 model; series of Fig. 13 (from 125 nM).
Assay [5] has the same target. In words: SPR, Biacore X100, multi-cycle kinetics, rhG-CSFR amine-coupled to CM5 chip, design as analyte, 1:1 model; series of Fig. 13 (from 31 nM).
For assay [6] the target is unchanged. In words: SPR, Biacore X100, multi-cycle kinetics, rhG-CSFR amine-coupled to CM5 chip, design as analyte, 1:1 model; series of Fig. 15C (from 20 nM).
The target of a further assay is T2, G-CSFR on Kasumi-1 cells (UniProt Q99062 25-836, limits assumed).
T2 sequence (looked up): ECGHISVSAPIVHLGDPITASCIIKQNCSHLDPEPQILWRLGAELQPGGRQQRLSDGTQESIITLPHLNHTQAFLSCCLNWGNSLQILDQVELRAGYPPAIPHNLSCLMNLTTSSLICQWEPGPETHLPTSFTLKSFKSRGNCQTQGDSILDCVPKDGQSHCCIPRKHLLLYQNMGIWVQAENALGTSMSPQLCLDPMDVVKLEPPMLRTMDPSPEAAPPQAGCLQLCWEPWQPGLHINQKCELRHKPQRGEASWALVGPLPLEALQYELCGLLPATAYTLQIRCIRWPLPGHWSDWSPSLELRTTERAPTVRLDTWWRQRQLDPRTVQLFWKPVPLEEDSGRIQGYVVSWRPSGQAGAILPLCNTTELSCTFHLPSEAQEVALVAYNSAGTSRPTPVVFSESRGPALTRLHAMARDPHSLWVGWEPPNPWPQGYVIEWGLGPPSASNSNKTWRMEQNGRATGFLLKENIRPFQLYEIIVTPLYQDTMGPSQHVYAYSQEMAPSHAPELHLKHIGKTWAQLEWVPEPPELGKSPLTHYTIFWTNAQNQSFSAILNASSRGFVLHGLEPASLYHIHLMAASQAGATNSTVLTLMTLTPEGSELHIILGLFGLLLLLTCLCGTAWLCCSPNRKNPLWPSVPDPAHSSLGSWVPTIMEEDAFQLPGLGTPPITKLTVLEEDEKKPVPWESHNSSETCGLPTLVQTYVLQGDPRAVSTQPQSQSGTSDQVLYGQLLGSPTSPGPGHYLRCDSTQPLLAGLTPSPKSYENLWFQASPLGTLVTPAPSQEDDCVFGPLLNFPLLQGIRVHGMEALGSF
The assay is described as follows: cell-based or functional assay.

A further assay has as its target T3, G-CSFR on NFS-60 cells (UniProt P40223 26-837, limits assumed).
T3 sequence (looked up): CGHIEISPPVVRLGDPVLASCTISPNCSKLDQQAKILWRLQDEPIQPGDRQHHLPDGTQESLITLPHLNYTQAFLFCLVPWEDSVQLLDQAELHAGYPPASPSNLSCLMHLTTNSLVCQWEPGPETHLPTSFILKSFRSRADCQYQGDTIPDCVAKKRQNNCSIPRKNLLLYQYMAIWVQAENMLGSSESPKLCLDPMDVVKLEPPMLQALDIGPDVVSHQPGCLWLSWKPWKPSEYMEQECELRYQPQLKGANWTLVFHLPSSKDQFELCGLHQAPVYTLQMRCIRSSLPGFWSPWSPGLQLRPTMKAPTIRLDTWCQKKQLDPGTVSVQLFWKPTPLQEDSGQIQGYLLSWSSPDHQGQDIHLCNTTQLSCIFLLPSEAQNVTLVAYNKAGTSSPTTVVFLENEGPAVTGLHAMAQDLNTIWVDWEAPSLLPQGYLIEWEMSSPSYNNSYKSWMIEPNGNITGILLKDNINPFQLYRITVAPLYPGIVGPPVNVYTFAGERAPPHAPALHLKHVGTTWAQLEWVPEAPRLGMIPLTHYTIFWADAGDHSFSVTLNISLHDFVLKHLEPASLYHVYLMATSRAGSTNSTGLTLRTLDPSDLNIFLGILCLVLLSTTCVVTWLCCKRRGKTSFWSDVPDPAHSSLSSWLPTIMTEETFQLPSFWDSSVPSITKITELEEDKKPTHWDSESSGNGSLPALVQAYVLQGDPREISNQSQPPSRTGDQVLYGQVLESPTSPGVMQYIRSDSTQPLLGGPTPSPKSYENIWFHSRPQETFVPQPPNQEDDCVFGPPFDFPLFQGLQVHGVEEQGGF
The assay is described as follows: cell-based or functional assay.

For assay [7], the target named is T1, Recombinant human G-CSFR (Glu25-Pro621, …). In words: SPR, twofold dilution series from 20 nM bop3 against chip-immobilized G-CSFR (Fig. 14B); reference not named.

B1: boa2 (designed binder)
chain: MAALAAALQSIYRKLAEMQRKLKSLEGISPELGPALDALRYDMADFAILMAQAMEEGLDSLPQSFLRKALEMIRKIQADAAALREKLAATYKGNDRADAAVYDAADLEILLEQAYEILRHLAAA
notes: Strictly monomeric in solution; Expressed from pET28a downstream of an N-terminal His-tag and thrombin cleavage site; also called bivalent-orientation antiparallel design 2
On to B1, for which, in assay [1], the Kd stood at 1.1 nM, the koff was determined as 0.0013 s⁻¹ and the kon was 1.4e+06 M⁻¹ s⁻¹. For the same molecule, in assay [2], the “fold tighter binding than bv6” value worked out at 4 fold.

B2: bv6 (designed binder)
chain: MAALAAALAEIYKGLAEYQARLKSLEGISPELGPALDALRYDMADFAILMAQAMEEGLDSLPQSFLRKALEMIRKIQADAAALREKLAATYKGNDRAAAAVEIAAQLEAFLEKAYQILRHLAAA
notes: Expressed from pET28a downstream of an N-terminal His-tag and thrombin cleavage site; Minorly dimeric in solution; also called starting template
Turning to B2, in assay [1], the Kd is 4.3 nM, the off-rate (koff) amounted to 0.0051 s⁻¹ and the association rate constant (kon) was 1.2e+06 M⁻¹ s⁻¹. In [3], the “fold tighter binding than Boskar4” value came to 12 fold. In [4], the Kd was determined as 14 nM, the koff is 0.0033 s⁻¹ and the kon was determined as 240000 M⁻¹ s⁻¹.

B3: bv22 (designed binder)
chain: MAALAAALAEIYKGLAEYQARLKSLEGISPELGPALDALRYDMADFAYLMAQAMEEGLDSLPQRFLWKALEMIRKIQADAAALREKLAATYKGNDRAAAAVEIAAQLEAFLEKAYQILRHLAAA
notes: Expressed from pET28a with N-terminal His-tag and thrombin cleavage site; also called Boskar4 variant bv22; second-generation variant
B3: in assay [5], the Kd was 1.1 nM, the off-rate constant (koff) is 0.00092 s⁻¹ and the association rate constant (kon) worked out at 880000 M⁻¹ s⁻¹. Further, in [6], the dissociation constant Kd came out at 1.3 nM, the koff is 0.0018 s⁻¹ and the kon amounted to 1.4e+06 M⁻¹ s⁻¹.

B4: bv23 (designed binder)
chain: MAALAAALAEIYKGLAEYQARLKSLEGISPELGPALDALRYDMADFAYLMAQAMEEGLDSLPQSFLWKALEMIRWIQADAAALREKLAATYKGNDRAAAAVEIAAQLEAFLEKAYQILRHLAAA
notes: Expressed from pET28a with N-terminal His-tag and thrombin cleavage site; also called Boskar4 variant bv23
As for B4, in assay [5], the Kd came out at 1.8 nM, the koff was found to be 0.0015 s⁻¹ and the kon came to 860000 M⁻¹ s⁻¹.

B5: boa1 (designed binder)
chain: MAALAAALQSIYRKLAEMQAKLKSLEGISPELGPALDALRYDMADFAILMAQAMEEGLDSLPQSFLRKALEMIRKIQADAAALREKLAATYKGNDRADAAVYIAADLEILLEQAYQILRHLAAA
notes: Strictly monomeric in solution; Expressed from pET28a downstream of an N-terminal His-tag and thrombin cleavage site; also called bivalent-orientation antiparallel design 1
Turning to B5, in [1], the dissociation constant Kd worked out at 3.7 nM, the koff was 0.0024 s⁻¹ and the kon turned out to be 690000 M⁻¹ s⁻¹.

B6: bv21 (designed binder)
chain: MAALAAALAEIYKGLAEYQARLKSLEGISPELGPALDALRWDMADFAYLMAQAMEEGLDSLPQRFLWKALEMIRKIQADAAALREKLAATYKGNDRAAAAVEIAAQLEAFLEKAYQILRHLAAA
notes: Expressed from pET28a with N-terminal His-tag and thrombin cleavage site; also called Boskar4 variant bv21
B6: in assay [5], the dissociation constant (Kd) is 1.4 nM, the koff worked out at 0.0011 s⁻¹ and the kon was 820000 M⁻¹ s⁻¹.

B7: bv24 (designed binder)
chain: MAALAAALAEIYKGLAEYQARLKSLEGISPELGPALDALRWDMADFACLMAQAMEEGLDSLPQRFLWKALEMIRKIQADAAALREKLAATYKGNDRAAAAVEIAAQLEAFLEKAYQILRHLAAA
notes: Expressed from pET28a with N-terminal His-tag and thrombin cleavage site; also called Boskar4 variant bv24
B7: in assay [5], the dissociation constant Kd worked out at 1.7 nM, the koff stood at 0.0017 s⁻¹ and the on-rate constant (kon) came out at 1e+06 M⁻¹ s⁻¹.

B8: bop1 (designed binder)
chain: MAALDAALYEIYDGLILYQQRLKSLEGISPELGPALDALRYDMADFAILMAQAMEEGLDSLPQSFLRKALEMIRKIQADAAALREKLAATYKGNDRAAAAQSIARKLEEMLEKAYQILRHLAAA
notes: De novo four-helix bundle, strictly monomeric in solution; Expressed from pET28a downstream of an N-terminal His-tag and thrombin cleavage site; also called bivalent-orientation parallel design 1
Consider B8, for which, in assay [1], the equilibrium dissociation constant (Kd) was determined as 2.7 nM, the dissociation rate constant (koff) came out at 0.0022 s⁻¹ and the kon worked out at 880000 M⁻¹ s⁻¹. Further, in [6], the dissociation constant Kd was determined as 3.2 nM, the koff came to 0.0063 s⁻¹ and the kon was 2e+06 M⁻¹ s⁻¹.

B9: bop3 (designed binder)
chain: MAALDAALYEIYDGLILYQQRLKSLEGISPELGPALDALRYDMADFAYLMAQAMEEGLDSLPQRFLWKALEMIRKIQADAAALREKLAATYKGNDRAAAAQSIARKLEEMLEKAYQILRHLAAA
notes: exclusively monomeric by SEC; Expressed from pET28a downstream of an N-terminal His-tag and thrombin cleavage site
As to B9, in the assay with G-CSFR on Kasumi-1 cells, the “IC50, Kasumi-1 competitive inhibition assay, 400 pg/mL rhG-CSF” value came to 1.97 nM. Moreover, the “fold improvement in inhibitory potency compared to bop1, NFS-60 competitive inhibition assay” value with G-CSFR on NFS-60 cells stood at 3 fold. For the same molecule, in assay [7], the “fold improvement in the receptor-binding affinity” value stood at 10 fold. In [6], the Kd stood at 1.2 nM, the off-rate constant (koff) came to 0.0018 s⁻¹ and the kon is 1.5e+06 M⁻¹ s⁻¹.

B10: bop2 (designed binder)
chain: MAALDAALYDIYDGLILYQQQLESLEGISPELGPALDALRYDMADFAILMAQAMEEGLDSLPQSFLRKALEMIRKIQADAAALREKLAATYKGNDRAAAAQSIARKLEEMLRKAYQDLRHLAAA
notes: Strictly monomeric in solution; Expressed from pET28a downstream of an N-terminal His-tag and thrombin cleavage site; also called bivalent-orientation parallel design 2
Regarding B10, in [1], the Kd amounted to 0.85 nM, the off-rate (koff) is 0.0013 s⁻¹ and the kon worked out at 1.9e+06 M⁻¹ s⁻¹. For the same molecule, the “fold tighter binding than bv6” value in assay [2] turned out to be 4 fold.

The term Kd denotes the constant that tells how readily two partners part at equilibrium. Broadly, the koff is the rate constant with which the complex falls apart. The term kon denotes the second-order rate constant of association.

The record behind these values is patent EP4670784A1 (Eberhard Karls Universität Tübingen (Medizinische Fakultät), dated 2025).
